The values that follow come from the PETadex activity labels.

Substrate in series [1]: p-NP-C4
Substrate in series [2]: p-NP-C2
The mark [3] stands for this setting: pH 7.2, part of the chain shown.

B1: unnamed (protein)
chain: MIRMALKPLVAACLLASLSTAPQAAPSPYSTLVVFGDSLSDAGQFPDPAGPAGSTSRFTNRVGPTYQNGSGEIFGPTAPMLLGNQLGIAPGDLAASTSPVNAQQGIADGNNWAVGGYRTDQIYDSITAANGSLIERDNTLLRSRDGYLVDRARQGLGADPNALYYITGGGNDFLQGRILNDVQAQQAAGRLVDSVQALQQAGARYIVVWLLPDLGLTPATFGGPLQPFASQLSGTFNAELTAQLSQAGANVIPLNIPLLLKEGMANPASFGLAADQNLIGTCFSGNGCTMNPTYGINGSTPDPSKLLFNDSVHPTITGQRLIADYTYSLLSAPWELTLLPEMAHGTLRAYQDELRSQWQADWENWQNVGQWRGFVGGGGQRLDFDSQDSAASGDGNGYNLTLGGSYRIDEAWRAGVAAGFYRQKLEAGAKDSDYRMNSYMASAFVQYQENRWWADAALTGGYLDYDDLKRKFALGGGERSEKGDTNGHLWAFSARLGYDIAQQADSPWHLSPFVSADYARVEVDGYSEKGASATALDYDDQKRSSKRLGAGLQGKYAFGSDTQLFAEYAHEREYEDDTQDLTMSLNSLPGNRFTLEGYTPQDHLNRVSLGFSQKLAPELSLRGGYNWRKGEDDTQQSVSLALSLDF
Take B1: in series [1] (pH 7.2), the Km (usually the concentration of substrate that gives half-maximal velocity) came out at 700 µM, the kcat (usually the maximal rate divided by the concentration of active sites) is 247 s⁻¹ and the specificity constant (kcat/Km) (usually the turnover number divided by the Michaelis constant) was found to be 353000 M⁻¹ s⁻¹.

B2: unnamed (protein)
chain: MDGVLWRVRTAALMAALLALAAWALVWASPSVEAQSNPYQRGPNPTRSALTADGPFSVATYTVSRLSVSGFGGGVIYYPTGTSLTFGGIAMSPGYTADASSLAWLGRRLASHGFVVLVINTNSRFDYPDSRASQLSAALNYLRTSSPSAVRARLDANRLAVAGHSMGGGGTLRIAEQNPSLKAAVPLTPWHTDKTFNTSVPVLIVGAEADTVAPVSQHAIPFYQNLPSTTPKVYVELDNASHFAPNSNNAAISVYTISWMKLWVDNDTRYRQFLANVNDPALSDFRTNNRHAQ
For B2, in series [1] (pH 8, 30 °C), the Km was found to be 250 µM, the kcat was 342 s⁻¹ and the kcat/Km came to 1.37e+06 M⁻¹ s⁻¹. Moreover, in series [1] (pH 8, 50 °C), the Km was found to be 180 µM, the turnover number (kcat) stood at 196 s⁻¹ and the kcat/Km was 1.09e+06 M⁻¹ s⁻¹. Moreover, in series [1] (pH 8, 70 °C), the Km turned out to be 190 µM, the kcat came out at 49 s⁻¹ and the kcat/Km turned out to be 258000 M⁻¹ s⁻¹.

B3: unnamed (protein)
chain: MRKAPLLRFTLASLALACSQALAGPSPYSTLIVFGDSLADAGQFPDLVGGTPGARFTNRDADGNFAPVSPMILGGRLGVAPGDLNPSTSVGIQPDGNNWAVGGYTTQQILDSITTTSETVIPPGNPNAGLVLRERPGYLANGLRADPNALYYLTGGGNDFLQGLVNSPADAVAAGARLAASAQALQQGGARYIMVWLLPDLGQTPNFSGTPQQNPLSLLSAAFNQSLISQLGQIDAQIIPLNIPLLLSEALASPSQFGLASDQNLVGTCYSGDSCVENPVYGINGTTPDPTKLLFNDSVHPTIAGQQLIADYAYSILAAPWELTLLPEMAHASLRAHQDELRNQWQTPWQAVGQWQAFVASGAQDLDFDGQHSAASGDGRGYNLTVGGSYRLNDAWRLGLAGGANRQKLEAGEQDSDYKLNSYMASAFAQYRQDRWWADAALTAGHLDYSDLKRTFALGVNDRSEKGDTDGEAWAMSGRLGYNLAADTSNWQLAPFISADYARVKVDGYDEKSGRSTALGFDDQERTSRRLGVGLLGSVQVLPSTRLFAEVAQEHEFEDDEQDVTMHLTSLPANDFTLTGYTPHSDLTRASLGVSHELVAGVHLRGNYNWRKSDELTQQGISVGVSVDF
Consider B3, for which, in series [1] (pH 7.2), the Km worked out at 300 µM.

B4: unnamed (protein)
chain: MRLHRLRARLSAVACGLLLLLVRGQGQDSASPIRTTHTGQVLGSLVHVKGANAGVQTFLGIPFAKPPLGPLRFAPPEPPESWSGVRDGTTHPAMCLQDLTAVESEFLSQFNMTFPSDSMSEDCLYLSIYTPAHSHEGSNLPVMVWIHGGALVFGMASLYDGSMLAALENVVVVIIQYRLGVLGFFSTGDKHATGNWGYLDQVAALRWVQQNIAHFGGNPDRVTIFGESAGGTSVSSLVVSPISQGLFHGAIMESGVALLPGLIASSADVISTVVANLSACDQVDSEALVGCLRGKSKEEILAINKPFKMIPGVVDGVFLPRHPQELLASADFQPVPSIVGVNNNEFGWLIPKVMRIYDTQKEMDREASQAALQKMLTLLMLPPTFGDLLREEYIGDNGDPQTLQAQFQEMMADSMFVIPALQVAHFQCSRAPVYFYEFQHQPSWLKNIRPPHMKADHGDELPFVFRSFFGGNYIKFTEEEEQLSRKMMKYWANFARNGNPNGEGLPHWPLFDQEEQYLQLNLQPAVGRALKAHRLQFWKKALPQKIQELEEPEERHTEL
Regarding B4, in series [1] (pH 8, 37 °C), the Km stood at 31 µM, the turnover number (kcat) was determined as 70 s⁻¹ and the kcat/Km was determined as 2.26e+06 M⁻¹ s⁻¹.

B5: unnamed (protein)
chain: MWLRAFILATLSASAAWGHPSSPPVVDTVHGKVLGKFVSLEGFAQPVAIFLGIPFAKPPLGPLRFTPPQPAEPWSFVKNATSYPPMCTQDPKAGQLLSELFTNRKENIPLKLSEDCLYLNIYTPADLTKKNRLPVMVWIHGGGLMVGAASTYDGLALAAHENVVVVTIQYRLGIWGFFSTGDEHSRGNWGHLDQVAALRWVQDNIASFGGNPGSVTIFGESAGGESVSVLVLSPLAKNLFHRAISESGVALTSVLVKKGDVKPLAEQIAITAGCKTTTSAVMVHCLRQKTEEELLETTLKMKFLSLDLQGDPRESQPLLGTVIDGMLLLKTPEELQAERNFHTVPYMVGINKQEFGWLIPMQLMSYPLSEGQLDQKTAMSLLWKSYPLVCIAKELIPEATEKYLGGTDDTVKKKDLFLDLIADVMFGVPSVIVARNHRDAGAPTYMYEFQYRPSFSSDMKPKTVIGDHGDELFSVFGAPFLKEGASEEEIRLSKMVMKFWANFARNGNPNGEGLPHWPEYNQKEGYLQIGANTQAAQKLKDKEVAFWTNLFAKKAVEKPPQTEHIEL
As to B5, in series [1] (pH 8, 37 °C), the Km was determined as 27 µM, the kcat stood at 17 s⁻¹ and the kcat/Km amounted to 630000 M⁻¹ s⁻¹.

B6: unnamed (protein)
chain: MTVTDIILIHGALNRGACYDAVVPLLEARGYRVHAPDLTGHTPGDGGHLSVVDMEHYTRPVADILARAEGQSILLGHSLGGASISWLAQHHPDKVAGLIYLTAVLTAPGITPETFVLPGEPNRGTPHALDLIQPVDEGRGLQADFSRLERLREVFMGDYPGEGMPPAEQFIQTQSTVPFGTPNPMEGRALEIPRLYIEALDDVVIPIAVQRQMQKEFPGPVAVVSLPASHAPYYSMPERLAEAIADFADAPAEYRQTATKAGPDRPAGADGGRADRADLP
As for B6, in series [2] (pH 7.5, 37 °C), the Michaelis-Menten constant (Km) worked out at 124 µM, the kcat amounted to 183 s⁻¹ and the kcat/Km was 1.48e+06 M⁻¹ s⁻¹.

B7: unnamed (protein)
chain: MRALLLSGCLALVLLTQQAAAQTLLVVGDSISAALGLDTSQGWVALLQKRLADEGYDYRVVNASISGDTSAGGLARLPALLAEEKPALVVIELGGNDGLRGMAPAQLQQNLASMAQKARAEGAKVLLLGIQLPPNYGPRYIEAFSRVYGAVAAQEKTALVPFFLEGVGGVQGMMQADGIHPALAAQPRLLENVWPTLKPLL
On to B7, for which, in series [1] (setting [3]), the Michaelis constant (Km) was 1000 µM, the kcat is 12 s⁻¹ and the kcat/Km was 12000 M⁻¹ s⁻¹.

B8: unnamed (protein)
chain: MSEEVSKNLSETLFVKHKQAKETSALTQYMPTSQSLLDEIKEKNGFSWYRNLRRLQWVWQGVDPIEQEQVLARIASSKHSRTDEQWLDTVMGYHSGNWAYEWTRLGMEHQKRAGEMTNEAASEALFSASLCYSIAGYPHLKSDNLAIQAQVLANSAYLEAAKKSKYIIKQLEIPFEKGKITAHLHLTNTDKPHPVVIVSAGLDSLQTDMWRLFRDHLAKHDIAMLTVDMPSVGYSSKYPLTEDYSRLHQAVLNELFSIPYVDHHRVGLIGFRFGGNAMVRLSFLEQEKIKACVILGAPIHDIFASPQKLQQMPKMYLDVLASRLGKSVVDIYSLSGQMAAWSLKVQGFLSSRKTKVPILAMSLEGDPVSPYSDNQMVAFFSTYGKAKKISSKTITQGYEQSLDLAIKWLEDELLR
B8: in series [2] (pH 7.5, 25 °C), the Km was 18600 µM, the kcat is 0.67 s⁻¹ and the kcat/Km was 36 M⁻¹ s⁻¹.

B9: unnamed (protein)
chain: MSKISEAVKRARAAFSSGRTRPLQFRIQQLEALQRLIQEQEQELVGALAADLHKNEWNAYYEEVVYVLEEIEYMIQKLPEWAADEPVEKTPQTQQDELYIHSEPLGVVLVIGTWNYPFNLTIQPMVGAIAAGNSVVLKPSELSENMASLLATIIPQYLDKDLYPVINGGVPETTELLKERFDHILYTGSTGVGKIIMTAAAKHLTPVTLELGGKSPCYVDKNCDLDVACRRIAWGKFMNSGQTCVAPDYILCDPSIQNQIVEKLKKSLKEFYGEDAKKSRDYGRIISARHFQRVMGLIEGQKVAYGGTGDAATRYIAPTILTDVDPQSPVMQEEIFGPVLPIVCVRSLEEAIQFINQREKPLALYMFSSNDKVIKKMIAETSSGGVAANDVIVHITLHSLPFGGVGNSGMGSYHGKKSFETFSHRRSCLVRPLMNDEGLKVRYPPSPAKMTQH
Consider B9, for which, in series [2] (pH 7.4, 25 °C), the Km came out at 200 µM, the kcat amounted to 1.43 s⁻¹ and the catalytic efficiency (kcat/Km) amounted to 7170 M⁻¹ s⁻¹.

B10: unnamed (protein)
chain: MWLLPLVLTSLASSATWAGQPASPPVVDTAQGRVLGKYVSLEGLAQPVAVFLGVPFAKPPLGSLRFAPPQPAEPWSFVKNTTSYPPMCCQDPVVEQMTSDLFTNGKERLTLEFSEDCLYLNIYTPADLTKRGRLPVMVWIHGGGLVLGGAPMYDGVVLAAHENVVVVAIQYRLGIWGFFSTGDEHSRGNWGHLDQVAALHWVQENIANFGGDPGSVTIFGESAGGESVSVLVLSPLAKNLFHRAISESGVALTVALVRKDMKAAAKQIAVLAGCKTTTSAVFVHCLRQKSEDELLDLTLKMKFLTLDFHGDQRESHPFLPTVVDGVLLPKMPEEILAEKDFNTVPYIVGINKQEFGWLLPTMMGFPLSEGKLDQKTATSLLWKSYPIANIPEELTPVATDKYLGGTDDPVKKKDLFLDLMGDVVFGVPSVTVARQHRDAGAPTYMYEFQYRPSFSSDKKPKTVIGDHGDEIFSVFGFPLLKGDAPEEEVSLSKTVMKFWANFARSGNPNGEGLPHWPMYDQEEGYLQIGVNTQAAKRLKGEEVAFWNDLLSKEAAKKPPKIKHAEL
Take B10: in series [2] (pH 7.4, 37 °C), the Km stood at 520 µM, the catalytic constant (kcat) is 20.2 s⁻¹ and the kcat/Km amounted to 38800 M⁻¹ s⁻¹. Besides, in series [1] (pH 7.4, 37 °C), the Km is 140 µM, the kcat turned out to be 27.4 s⁻¹ and the kcat/Km is 196000 M⁻¹ s⁻¹.
